Consider 45 molecules from US20260176365A1 (SYNTHEKINE, published 2026).

Changes are numbered by the printed parent chain.

Sequences and labels used below:
T1: mgp130 ECD antigen (mouse, UniProt Q00560 23-617)
T1 construct: Antigen of biopanning and PE-ELISA; The immunogen was an ECD-human IgG1 hinge-Fc fusion; also called ECD of mouse gp130; ngp130 ECD antigen (so in the source)
T1 sequence: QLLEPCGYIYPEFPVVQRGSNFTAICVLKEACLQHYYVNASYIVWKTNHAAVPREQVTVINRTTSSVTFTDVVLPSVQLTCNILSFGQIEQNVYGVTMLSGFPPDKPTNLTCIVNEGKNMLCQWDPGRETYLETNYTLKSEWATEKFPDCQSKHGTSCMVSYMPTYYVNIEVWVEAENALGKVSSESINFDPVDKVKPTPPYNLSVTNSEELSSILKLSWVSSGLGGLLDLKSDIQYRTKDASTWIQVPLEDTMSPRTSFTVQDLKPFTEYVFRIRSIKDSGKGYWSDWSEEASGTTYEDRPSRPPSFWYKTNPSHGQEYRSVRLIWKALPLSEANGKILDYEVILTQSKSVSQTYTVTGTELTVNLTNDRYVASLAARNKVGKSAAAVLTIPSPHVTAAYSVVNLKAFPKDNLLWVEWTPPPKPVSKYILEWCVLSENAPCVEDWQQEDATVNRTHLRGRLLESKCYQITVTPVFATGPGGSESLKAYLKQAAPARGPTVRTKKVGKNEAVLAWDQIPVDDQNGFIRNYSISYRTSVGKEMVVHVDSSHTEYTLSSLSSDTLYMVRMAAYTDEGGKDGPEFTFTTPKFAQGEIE

B1: mgp130_VHH1 (VHH)
VHH: QVQLQESGGGSVQAGGSLRLSCVISGFTYRQTFMGWFRQVLGKEREGVAAISTGGGSTVYADSVKGRFTISQDSSKNTVYLEMNGLKLEDTGMYYCAASTVITSVSINRGLYQYWGQGTQVTVSS
notes: As periplasmic extract of the phage clone; also called anti-mouse gp130 VHH; not shown: HA/His tag of the pMECS phagemid
B2: mgp130_VHH19 (VHH)
VHH: B1 VHH with V23G, Q31P, T58S, I70V, G110A
notes: as for B1
B3: mgp130_VHH37 (VHH)
VHH: B1 VHH with S11P, L41P, V105E
notes: as for B1
B4: mgp130_VHH14 (VHH)
VHH: B1 VHH with R30K, L41P
notes: as for B1
B5: mgp130_VHH25 (VHH)
VHH: B1 VHH with R30K, L41P, S106T
notes: as for B1
B6: mgp130_VHH9 (VHH)
VHH: B1 VHH with V23G, Q31P, T58S, I70V
notes: as for B1
B7: mgp130_VHH5 (VHH)
VHH: B1 VHH with L41V, V59I, N77D, V105E, G110N
notes: as for B1
B8: mgp130_VHH26 (VHH)
VHH: B1 VHH with T28V, R30K, L41P
notes: as for B1
B9: mgp130_VHH49 (VHH)
VHH: B1 VHH with R30K, L41P, D73E, S106T
notes: as for B1
B10: mgp130_VHH32 (VHH)
VHH: B1 VHH with L20V, I24V, L41P, G110N
notes: as for B1
B11: mgp130_VHH21 (VHH)
VHH: B1 VHH with L20V, V23Q, L41P, V105P, G110N
notes: as for B1
B12: mgp130_VHH47 (VHH)
VHH: B1 VHH with R30K, L41P, S57N, S106T, I107V
notes: as for B1
B13: mgp130_VHH36 (VHH)
VHH: B1 VHH with L41V, T58M, N77D, V105E, G110N
notes: as for B1
B14: mgp130_VHH15 (VHH)
VHH: B1 VHH with L41V, N77D, V105E, N108Y, G110N
notes: as for B1
B15: mgp130_VHH8 (VHH)
VHH: B1 VHH with Q31P, S52T, S99T, G110N
notes: as for B1
B16: mgp130_VHH2 (VHH)
VHH: B1 VHH with V23A, L41V, N77D, V105E, G110N
notes: as for B1
B17: mgp130_VHH24 (VHH)
VHH: B1 VHH with Q31P, S52T, V59L, S99T, G110N
notes: as for B1
B18: mgp130_VHH45 (VHH)
VHH: B1 VHH with L20V, L41P, V59I, D62N
notes: as for B1
B19: mgp130_VHH39 (VHH)
VHH: B1 VHH with F27L, R30K, L41P, S74N, G110Y, Y114W
notes: as for B1
B20: mgp130_VHH31 (VHH)
VHH: B1 VHH with L41V, N77D, V105E, G110N
notes: as for B1
B21: mgp130_VHH27 (VHH)
VHH: B1 VHH with L20V, L41P
notes: as for B1
B22: mgp130_VHH41 (VHH)
VHH: B1 VHH with V23G, Q31P, N77D, V105E, G110N
notes: as for B1
B23: mgp130_VHH38 (VHH)
VHH: QVQLQESGGGSVQAGGFLRLSCAFSGYTGCMGWFRQGPGQEREGVASINDGGSLTYADSVKGRFTISKDNAKKTLDLQMNTLKPEDTAMYYCAASLSYCLNPTLRVDGYNYWGQGTQVTVSS
notes: as for B1
B24: mgp130_VHH23 (VHH)
VHH: QVQLQESGGGLVQPGGSLRLSCTASGFTFNSAHMKWERQPPGKGLEWVSFITPGGASTGYADSVKGRFTISRDNAKNTLYLQMNNLKTEDTAVYYCATGGLRGQGTQVTVSS
notes: as for B1
B25: mgp130_VHH44 (VHH)
VHH: B24 VHH with M34L, P53N, N74D
notes: as for B1
B26: mgp130_VHH30 (VHH)
VHH: QVQLQESGGGLVQPGGSLRLSCAASGFTFSSYAMSWVRQAPGKGLEWVSAINSGGGSTYYADSVKGRFTISRDNAKNTLYLQLNSLKTEDTAMYYCAKHVTGDYDPSLRYEYNYWSQGTQVTVSS
notes: as for B1
B27: mgp130_VHH33 (VHH)
VHH: B26 VHH with L79M, T101A, Y112W, N113H, Y114V, S116G
notes: as for B1
B28: mgp130_VHH35 (VHH)
VHH: B26 VHH with V100I, S116G
notes: as for B1
B29: mgp130_VHH29 (VHH)
VHH: B26 VHH with G56A, Y95C, Y114C, S116G, Q117P
notes: as for B1
B30: mgp130_VHH17 (VHH)
VHH: B26 VHH with S30R, S31N, N113A
notes: as for B1
B31: mgp130_VHH18 (VHH)
VHH: B26 VHH with L11S, P14A, G66A, E111D, S116G
notes: as for B1
B32: mgp130_VHH11 (VHH)
VHH: B26 VHH with S30R, S31N, A97T
notes: as for B1
B33: mgp130_VHH46 (VHH)
VHH: B26 VHH with Y95C, V100I, Y114C, S116G
notes: as for B1
B34: mgp130_VHH16 (VHH)
VHH: B26 VHH with S30R, S31N, L83M, T88P
notes: as for B1
B35: mgp130_VHH43 (VHH)
VHH: B26 VHH with S53L, G56D, S57T, A61T, N113G
notes: as for B1
B36: mgp130_VHH4 (VHH)
VHH: B26 VHH with G56A, S57G, A61T, Y110H, E111G, Y114V
notes: as for B1
B37: mgp130_VHH10 (VHH)
VHH: B26 VHH with A23T, S30R, S31N, Q82R, N84H
notes: as for B1
B38: mgp130_VHH7 (VHH)
VHH: B26 VHH with G16E, G56A, S57G, A61T, E111G, Y114V
notes: as for B1
B39: mgp130_VHH28 (VHH)
VHH: B26 VHH with N77S, A97T
notes: as for B1
B40: mgp130_VHH42 (VHH)
VHH: B26 VHH with E111G, Y114V
notes: as for B1
B41: mgp130_VHH34 (VHH)
VHH: B26 VHH with S30R, G66A, S116G
notes: as for B1
B42: mgp130_VHH12 (VHH)
VHH: B26 VHH with Y95C, E111G, Y114C, S116G, Q117P
notes: as for B1
B43: mgp130_VHH20 (VHH)
VHH: B26 VHH with M34V, A50T, A97T, Y114V
notes: as for B1
B44: mgp130_VHH22 (VHH)
VHH: QVQLQESGGGLVQPGGSLRLSCAVSGFTFSNYAMKWVRQAPGKGLEWVSSISGGGGATYYADSVKGRFTISRDNTKNTLYLQMNSLKTEDTAVYYCAAQNLDYRGQGTQVTVSS
notes: as for B1
B45: mgp130_VHH48 (VHH)
VHH: B44 VHH with G10A, V24A, N31Y, K76N, N77D
notes: as for B1

The target in the assay is T1, mgp130 ECD antigen. Nature of the assay: periplasmic extract ELISA (PE-ELISA) of phage clones.
Turning to B1, the binding result is on record as “binds”. As for B2, the binding result is reported as “binds”. For B3, the binding result is “binds”. B4: the binding result was “binds”. In the case of B5, the binding result is “binds”. Take B6: the binding result is “binds”. For B7, the binding result is reported as “binds”. Turning to B8, the binding result is recorded as “binds”. With B9, the binding result was “binds”. As to B10, the binding result is “binds”.

B11: the binding result is given as “binds”. Turning to B12, the binding result is given as “binds”. As to B13, the binding result was “binds”. As to B14, the binding result is given as “binds”. In the case of B15, the binding result is “binds”. On to B16, for which the binding result was “binds”. Consider B17, for which the binding result is “binds”. With B18, the binding result is reported as “binds”. On to B19, for which the binding result was “binds”.

Turning to B20, the binding result is recorded as “binds”. To B21 belongs “binds”; to B22, “binds”; to B23, “binds”. As for B24, the binding result is reported as “binds”. To B25 belongs “binds”; to B26, “binds”. With B27, the binding result was “binds”.

In the case of B28, the binding result is “binds”.

Turning to B29, the binding result is reported as “binds”. As for B30, the binding result was “binds”. Take B31: the binding result was “binds”.

In the case of B32, the binding result is “binds”. In the case of B33 it was “binds”; in that of B34, “binds”. To B35 belongs “binds”; to B36, “binds”; to B37, “binds”. As to B38, the binding result is given as “binds”. As for B39, the binding result is on record as “binds”. On to B40, for which the binding result was “binds”.

For the molecule B41, the binding result is reported as “binds”. Regarding B42, the binding result was “binds”.

Regarding B43, the binding result is reported as “binds”.

Turning to B44, the binding result is reported as “binds”. Regarding B45, the binding result is “binds”.
